Results published in the DeepSol protein solubility set.

Experiment: soluble on expression in E. coli; label from the status in PepcDB or PDB records

**Q.** Which “soluble on expression in E. coli” value does the source give for “MAETPNQRITEINLNKEMRTSFLDYAMSVIVARALPDVRDGLKPVHRRILYAMNDLGMTSDKAYKKSARIVGEVIGKYHPHGDTAVYFTMVRMAQDFSYRNMLVDGHGNFGSVDGDMAAAMRYTEARMSKISMELLRDINKDTIDYADNYDGSEREPVILPARFPNLLVNGSSGIAVGMATNIPTHHLGEVIDGVLALSHDPEITIRDLMEYIPGPDFPTAGMIMGRSGIRRAYESGRGSITVRGRVDIEEKKNGKETIVITEIPYQVNKARLVERIAELAREKKIDGITSLNDESDRSGMRIVIEVRRDISASVIVNNLFKMTALQTTFGINMLALVDNHPKVLNLKEILYYYLEHQKVVIRRRTEFELRKAEARAHILEGLRIALDNIDAIIKLIRGSKTSDVAKEGLMTQFNLSDKQAQAILDMRLQRLTGLEREKIEEEYQNLVALINDLKAILADDERILEIIREELEEIKVKYADKRRTEILAGDLVSLEDEDLIPEEEVAITLTKRGYIKRLPLSTYRSQRRGGRGIQGMSTHEDDFVEHLVATSTHDTLLFFTNTGKVYRSKGYEVPEYGRTAKGIPIINLLGIESQEQVNAVINLSEFTDDSYLFFTTKHGVVKRTTLSQFAKIRQSGLRAVELRENDELISVQMTDGSKNMIIATKHGQSIYFPEENIRVMGRTAAGVRGIRLREDDEVIGMEVLEDDEKVLVVTEKGYGKQTPASQYPLRNRGGMGVKTVTITEKNGNLVAMKTVTGEEDLMLMTVSGVLIRFEIDTVSQTGRSAMGVKLIRLDEDEKVATVAKVPKEEDEVELEEEIDETLITQVPDESFEDAPGSDIEE” here?
**A.** not soluble

**Q.** With “MAEVESFSLDHTKVKAPYVRLAGRKALAGGVVEKYDLRLAQPNREALPTGALHTLEHLLAGYLRDHLPGVIDLSPMGCRTGFYLVVEGPVGEEKVLEAFAQALKDVLAHEGEVPGASFRECGNYRDHDLPGAKAWAEKVLKAGLRVQATVPLEAR” as the sequence, how does the “soluble on expression in E. coli” value read?
**A.** soluble

**Q.** For “MAEVMSQTLEDAMRRNPHLRKYVEEFRRKYGKIPEFHVQLSRDMKEIPYPNIIYPVGDPIFIHIYGDPNTEKQYIVIEPRIETKEEEEKYKLIRDRMLELAPNKDIPEEQEEFERFLDSLFEEAVL”, which “soluble on expression in E. coli” value is on record?
**A.** not soluble

**Q.** With “MAFRVSVRLARDTFCLSDTVEGSVAVDVEGTSHDVAAAAPSAVRVALRAVEEAGKRHAIEHMALVTTVAGPSTAHEEAAAAALRESVNRFTTEAARRHPLLGVPVSTDSTMLVEGAASEHYTYSAGAGAASNPGGVTSETATSPPQRWEAGGHYVYPFALQLPPWLPPSYYYKPSAVKSHMSMRYTVAAFVVCGVEEADVDVVPREFRLQMTVLVPCTPLPAKAWRGSSCTSDGGAEGADKRGTCASAPLLSPVRFLLPAEIPQLLERLPAAQLVDFTVLSALPKRELQQCVERVSISPPFREKLTYHIYKYSLVLRGLLRNKPYTAVDVCITYDSGAAVLLCGRQQSVVRGGVALGLAAPHGNDSGDAPAALSSAGSGVAPGGLTVMGTVVGGEYSRAPRIHTDNHGMAPSPLGKRARGRQSPAAADPHTGDSANSLWRDGEGAGGSQLSALSACTEPAINGALRLHVRVRTGSVAVSKVRVKLLERVRCTSAPATQPNDVYTLATYTHSEKIHANTSTEFPIELALPKQFRHIAADNEKYPPPAGITTAAVHTTTWLQITFPSLHAVSEAQLAENVVLVGEDVDLTDTVPFLPCACPVRTL” as the sequence, how does the “soluble on expression in E. coli” value read?
**A.** not soluble

**Q.** For “MAGDIILRVEDLEKRFGGIVALDKVNLEIERGKVTLLIGPNGSGKTTLVNVISGFYKPDGGRVLFKGRDITGMSPHEISKLGLVRTFQIPKPFTNLTVLENVLTAADSPGENVYLAGLARRLWLGFEKRAAARAFEILGWVGLDHMWDRRSGELSGGQMKLLEIARAIMKGAEMIIMDEPAAGVNPRLAGSIMERIKYLAREKGITFLIIEHRIGLVKEYVDRVYAMSMGKVIASGKPDEVLNNPVVLESYLGG”, which “soluble on expression in E. coli” value is on record?
**A.** soluble

**Q.** With “MAGDPMIPVKNDPIDTRLAEMHEELRDLRNFPDSEFVGIIRELGFKCELCARCCTREFNDHVFLLDSDLERVRSIDPDAVTPAPYYEFCDQNGRFYVSGYALKTKPDGSCIFLENKRCRIYESRPSICRVYPHMLHREADETGKVDWRQISGLNEHGSYHSDLDDPACKEIALETRAYEEAYLQQVIGFFEAVKAHFRTNGLKHIQRTYDRKMREFLKGECDLEIFVYCKGGFEKQKLAKESERLEHHHHHH” as the sequence, how does the “soluble on expression in E. coli” value read?
**A.** soluble

**Q.** For “MAGDPMKNILIFPFLSISTGHHHVADALQAELESQGLAAEKIDIFSHSYRRLEKLSSVAYLKWIQYFPKTYSGIYRLLACGEFQHDKRYFMYECVFTQQMRHILQEKQPDIAFCTHALPSYLLNRLKPEYPNLTVVNVYTDFFVNQLWGRKNIDYHFVPSTEVKKQLISEGIDQNNIYLTGIPVHQNFEMESADTLQHHPPYTIIITGGSMGVGGILKWVQELSPGGKILYKILCGRNEKLYSYVKSLHHPLIEAIPYLHSKAEMNRLYEQATGIMTKPGGVTISECLQKRLPVFIYHALPGQEEMNLNLLHERKLVTDMRNWDMQKAEEYIAAFFQSNEQMKEYKKHVNGYLGEMSDRKIKDVLKRIIWKQKNTLLKLEHHHHHH”, which “soluble on expression in E. coli” value is on record?
**A.** not soluble

**Q.** With “MAGDPMNEEQRKSTSIDILAERDKKTKDYSKYFEHVYQPPSLKEARKRGKEEVNYNDDFQIDEKYRNMGQGKTFLIKTYGCQMNAHDTEVMAGILGALGYTPTEDINHADVILINTCAIRENAENKVFSEIGNLKHLKKEKPETVIGVCGCMSQEESVVNKILKSYQNVDMIFGTHNIHRLPEILEEAYLSKAMVVEVWSKEGDVIENLPKVREGNIKAWVNIMYGCDKFCTYCIVPFTRGKERSRRPEDIIDEVRDLARQGYKEITLLGQNVNAYGKDIDGLAYGLGDLLEDISKIDIPRVRFTTSHPWDFTDRMIEVIANGGNIVPHVHLPVQSGNNAVLKIMGRKYTRESYLDLVNRIKTHIPNVALTTDIIVGYPNETDEQFEETLTLYDEVEFEHAYTYIYSQRDGTPAAKMNDNVPLDVKKDRLQQLNKKVACYSERAMQQYEGQTVQVLCEGVSKKDDTVLSGYTSKNKLVNFKAPKSMIGKIVNVYIDEAKQFSLNGTFISVNDKTVVTQLEHHHHHH” as the sequence, how does the “soluble on expression in E. coli” value read?
**A.** soluble

**Q.** With “MAGDPMRRPHMSDATLVYDDDCGFCTWWADFIGERSDLEIVGFSALGDDLLERLPDDYESCSHLVTEEDVYSCGKSIETALTYTELGKPARPLVSFLRQFEDYERFRERAYRQVADNRSKWGKVMSKTPPARRDNSDLEHHHHHH” as the sequence, how does the “soluble on expression in E. coli” value read?
**A.** not soluble

**Q.** For “MAGDPMSESLAQYQEDLRRFSDELIRIQTPIKILDAIKWPREMEERFLSSKGTVLPAIKQDFYQNIALPFDPAKTQAELLSLKNDIHRRLGKKDKLGKLLVANVDQYRLVVDMLGHRGTPTFGKLSQELYGSASHRLHGDRHTLRQLGDRLSYIFSLPAARHMNKHHPKIISAPEAVNVLSQRLEKYFHSDDMRVRLSDGIVSDAAVGGDTVKLNSKAMFSESDLNVYEVHEGWVHVGTTLNGRAQPHATWLSVGSPRVAATQEGLAVLLEMLTLSSNPGRARRISDRVAAVDMAENGADFIEVFNYFRELNLSAKDSYRVTQRVFRGGMVEGGSFFTKDISYVRGYVENINFIRSAITSGLPELIPMLFLGKLAIEDIPVLYQACQEGILTPPKYLPPMFDNFSGLYAWFGFASGLAGIDLKGVQRHFTRLFKDVPSIDPSLELLDDTEFDNNSDAAALEHHHHHH”, which “soluble on expression in E. coli” value is on record?
**A.** soluble

**Q.** With “MAGDTTITVVGNLTADPELRFTPSGAAVANFTVASTPRMFDRQSGEWKDGEALFLRCNIWREAAENVAESLTRGSRVIVTGRLKQRSFETREGEKRTVVEVEVDEIGPSLRYATAKVNKASRSGGGGGGFGSGGGGSRQSEPKDDPWGSAPASGSFSGADDEPPF” as the sequence, how does the “soluble on expression in E. coli” value read?
**A.** soluble

**Q.** Which “soluble on expression in E. coli” value does the source give for “MAGGGNFIARVISYVANEFIVNGLANSHAFQRFAVRTSKRIENLSKMAAENREKVAQQMEEFAKNIDVIHEETLIILVWNLKTSVNHMGQLK” here?
**A.** not soluble

**Q.** For “MAGGLFKLMKDKSVDHSHLHKDHSIHHPTPPRSFFSSSSLAVHPNVETAQSSSEEDLRMPNIKVFSGSSHPDLSTRICERLQLEVSKASLKKFSNKETNVEIGESVRGEDVYIIQSAAGEINDNLMELLIMINACKIASSCRVAAVIPAFPYARQDKKDKSRAPISAKLVANMLSVAGADHIITMDLHASQIQGFFDIPVDNLYAEPAILKYIKESIPNWQTSVIVSPDAGGAKRVTSIADRLNVDFALIHKESKRANEVEKMTLVGSVEGKVAILVDDMADTCGTICMAADKLVEAGADKVYAFCVHGIFSGPALTRLNASKFEAVVVTNTIPQDENMKKCSKIQCIDISMILAEAIRRTHNGESVSYLFSHVPIC”, which “soluble on expression in E. coli” value is on record?
**A.** not soluble

**Q.** Which “soluble on expression in E. coli” value does the source give for “MAGMHFLVGISTENYVILAADKATFAYGAILADSENDKEYRLGKKLTMMCIGEEGDVAQFGDWTKRNLQLYSVRNGYEVSPSCAHHFVRRSIAEGLRSQDHYTVDVLIGGYDDKEDKAFLGSVDYLANGLGQQPYLFRGFCGRFCYAIMDREYKKDMTEAEGLALMNKCIGEAKRRFVANIPGYKVVIIDKKGYRKLDDVLF” here?
**A.** soluble

**Q.** For “MAGQIRMSPEELKSKATRYGQGANQIEDILRQLQNLQNELRGEWEGRAFEGFDQQFNQLKPKVQNFAQLLQEINMQLNKTAEAVARHDEDLSRNFGLQ”, which “soluble on expression in E. coli” value is on record?
**A.** not soluble

**Q.** Which “soluble on expression in E. coli” value does the source give for “MAGSATVEKRLDFGLLGPLQMTIDGTPVPSGTPKQRAVLAMLVINRNRPVGVDALITALWEEWPPSGARASIHSYVSNLRKLLGGAGIDPRVVLAAAPPGYRLSIPDNTCDLGRFVAEKTAGVHAAAAGRFEQASRHLSAALREWRGPVLDDLRDFQFVEPFATALVEDKVLAHTAKAEAEIACGRASAVIAELEALTFEHPYREPLWTQLITAYYLSDRQSDALGAYRRVKTTLADDLGIDPGPTLRALNERILRQQPLDAKKSAKTTAAGTVTVLDQRTMASGQQAVAYLHDIASGRGYPLQAAATRIGRLHDNDIVLDSANVSRHHAVIVDTGTNYVINDLRSSNGVHVQHERIRSAVTLNDGDHIRICDHEFTFQISAGTHGGT” here?
**A.** soluble

**Q.** With “MAGTGLLALRTLPGPSWVRGSGPSVLSRLQDAAVVRPGFLSTAEEETLSRELEPELRRRRYEYDHWDAAIHGFRETEKSRWSEASRAILQRVQAAAFGPGQTLLSSVHVLDLEARGYIKPHVDSIKFCGATIAGLSLLSPSVMRLVHTQEPGEWLELLLEPGSLYILRGSARYDFSHEILRDEESFFGERRIPRGRRISVICRSLPEGMGPGESGQPPPACLEHHHHHH” as the sequence, how does the “soluble on expression in E. coli” value read?
**A.** soluble

**Q.** For “MAGVSTTQSGAIGVDRTQYMSSLVPEQALVQEAGQQYAEIVQEARAKGLLDRDPAQLSRVRAISQRLIAQTGVFRADAANWPWEVHVLSVDEVNAWCMPGGKIAVYTGLLAHIKPTDDELAAVLGHEIAHALREHARERVSQQMATSIGLSVLSMATGSPGASDLGGKLTEVMFTLPNSRTHETEADRMGVELAARAGFDPRAAVTLWQKMGAADGNAPPEFLSTHPSASTRIGELQQALQKVLPLYEQARGQAAKLEHHHHHH”, which “soluble on expression in E. coli” value is on record?
**A.** not soluble

**Q.** Which “soluble on expression in E. coli” value does the source give for “MAGWVAKRFWKEASVAEEPGGFAVLLDGRGVRTPAKRPLILPTCALAEAVASEWQAQEGEVRPETMPVTRSANSALDKVAPQFDEVTEMLAAYGGTDLLCYRATAPEALVARQARAWDPVLAWAAERFEAPLETTAGVMHQAQPEASLTRLAEHVRSFSPFQVAGFHDLVAISGSLILGLGVTEGHLLPEEAWELSRVDESWQIEQWGADEEAAEIEAFRRTAFLQAARFYALCGKLAAALEHHHHHH” here?
**A.** not soluble

**Q.** Which “soluble on expression in E. coli” value does the source give for “MAHCLHPEKFFPVVKSVALPPGSLNGKVALVTGGGTGLGKAIATTFAHLGASVAIAARRLDVLEKTADEIRSSTGGVCEPFQMDVKDPAKVAKAFDAVEKKLGHTPDILINNAAGNFIMATERLSPNAYGTIIDIVLKGTLHVTTELGRRCIQQKRGASVLSITTLYAQSGAPFVVPSAVSKAGVENMTKSLASEWAKHGLRFNAIAPGPIPTEGAFGRLFAGELKDSGDAMKASVPVGRLGHPEEIANLAAFMSSDFMSWMNGAIIDFDGGQQHIHHGSHMGQFLHEWDNEKWEETENLIRGRTGKEKKSKL” here?
**A.** soluble

**Q.** For “MAHDLQKMMDGELVRLQLEIKKEQERRLAEKMIPVFGVWQSPINQYEFADPEQAISCAAGLLDKVLREVKDDLSKEGGLQGWNGNLLRIYVQHVNESDFAVLQPYLKDK”, which “soluble on expression in E. coli” value is on record?
**A.** not soluble
